In PMC7338535 (Scientific Reports, 2020):

Molecular target: the molecule itself
Test: crystal structure; apo DiB3, crystals grown at 21 °C in 0.8 M sodium citrate, 50 mM sodium borate, 0.1 sodium acetate, pH 3.5; one chain in the asymmetric unit, dimer with a crystallographic symmetry mate

B1: DiB3 (natural protein)
chain: LESTSLYKKSSSTPPRGVTVVNNFDAKRYLGTWYEIARFDHRFERGLEKVTATYSLRDDGGLNFINKGYNPDRGMWQQSEGKAYFTGAPTRAALKVSFFGPFYGGYNVIALDREYRHALVCGPDRDYLWIQSRTPTISDEVKQEMLAVATREGFDVSKFIWVQQPGS
B1 was tested, and the “stoichiometry N” value was 2.
